Measured values: patent CN113773389A

Molecular target: T1, 人胸苷激酶1(TK1) (human) (UniProt P04183)
T1 sequence (looked up): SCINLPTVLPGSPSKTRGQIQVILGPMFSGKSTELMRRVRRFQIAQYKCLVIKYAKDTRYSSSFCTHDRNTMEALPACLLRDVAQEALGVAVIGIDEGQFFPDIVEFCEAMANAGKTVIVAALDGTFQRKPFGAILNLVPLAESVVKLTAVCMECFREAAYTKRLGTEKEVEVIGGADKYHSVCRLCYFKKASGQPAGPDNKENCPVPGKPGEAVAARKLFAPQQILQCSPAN
Assay: cell-based or functional assay

B1: 鼠抗人胸苷激酶1-IgG单克隆抗体(SSTK小鼠杂交瘤细胞株057M) (antibody, V domains shown)
VH: EVKLVESGGGLAQPGGSLRLSCATSGFTFSDYYMNWVRQPPGKAFEWLGFIRNKEYGNTAEYNPSLKGRFTISRDDSQSILYLQMNTLRVEDSAIYYCARDGAFDYWGQGTSLTVSS
VL: DIVMTQSPASLAVSLGQRATISCRASKSVSTSGYSYMHWNQQKPGQPPKLLIYLASNLESGVPARFSGSGSGTDFTLNIHPVEEEDAATYYCQESREFPTVGGGTNLEIK
肿瘤细胞凋亡频率 (Annexin V-FITC/PI), KATO-Ⅲ, 10μg/ml antibody, 72 h: 3.49 倍
肿瘤细胞凋亡频率 (Annexin V-FITC/PI), KATO-Ⅲ(STEM), 10μg/ml antibody, 72 h: 2.59 倍
肿瘤细胞凋亡频率 (Annexin V-FITC/PI), NCI-N87, 10μg/ml antibody, 72 h: 1.46 倍
肿瘤细胞凋亡频率 (Annexin V-FITC/PI), NCI-N87(STEM), 10μg/ml antibody, 72 h: 2.21 倍
肿瘤细胞生存活力 (CCK-8), KATO-Ⅲ, 100μg/ml antibody, 72 h: 56.3%
肿瘤细胞生存活力 (CCK-8), KATO-Ⅲ(STEM), 100μg/ml antibody, 72 h: 66.6%
肿瘤细胞生存活力 (CCK-8), NCI-N87, 100μg/mL antibody, 72 h: 85%
肿瘤细胞生存活力 (CCK-8), NCI-N87(STEM), 100μg/mL antibody, 72 h: 66.6%
